Assay results published in the supplement of paper PMC11136658.

Tested on: peptide library, one residue held at a place counted from the Y acceptor
Assay: relative phosphorylation of the sub-library (ratio to the mean residue at this position); higher = residue favoured
In short: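 Every value reflects phosphorylation relative to the mean randomized residue. The sum of the 18 randomized residues, or 16 in the Ser/Thr-free library, served to normalize intensities at each position, which were then multiplied by that number. Intensities came from phosphorimaging with ImageQuant of biotinylated Tyr-centred peptides captured on streptavidin membranes after 90 min with purified recombinant kinases and 50 μM ATP plus γ-32P-ATP.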

Sequence of TYK2, construct: aa871-end, human (P29597 871-1187, looked up): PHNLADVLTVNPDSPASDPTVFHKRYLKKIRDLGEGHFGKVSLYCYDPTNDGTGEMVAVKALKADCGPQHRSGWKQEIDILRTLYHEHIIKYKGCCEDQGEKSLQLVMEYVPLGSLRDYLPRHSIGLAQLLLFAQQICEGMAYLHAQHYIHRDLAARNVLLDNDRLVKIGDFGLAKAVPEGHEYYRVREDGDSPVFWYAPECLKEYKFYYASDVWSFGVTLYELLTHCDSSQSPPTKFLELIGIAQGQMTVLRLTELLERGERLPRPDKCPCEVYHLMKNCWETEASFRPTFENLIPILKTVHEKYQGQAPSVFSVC
Sequence of TXK, construct: aa239-end, human (P42681 239-527, looked up): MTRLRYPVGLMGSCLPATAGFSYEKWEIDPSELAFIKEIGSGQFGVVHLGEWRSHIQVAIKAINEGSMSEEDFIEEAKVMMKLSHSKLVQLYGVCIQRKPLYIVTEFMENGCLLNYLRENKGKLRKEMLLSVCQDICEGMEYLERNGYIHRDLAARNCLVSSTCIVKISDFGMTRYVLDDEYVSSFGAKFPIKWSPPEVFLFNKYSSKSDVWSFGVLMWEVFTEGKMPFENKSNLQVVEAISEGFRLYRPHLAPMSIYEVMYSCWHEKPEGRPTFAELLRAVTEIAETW

TXK, construct: aa239-end, human (from UniProt P42681)
relative phosphorylation
Details	at +1	at +2	at +3	at +4	at +5	at -1	at -2	at -3	at -4	at -5
A fixed	1.58	1.14	0.87	0.836	0.784	0.51	1.03	0.998	1.03	1.07
D fixed	2.77	1.02	0.409	0.931	0.726	0.678	2.01	1.85	1.81	1.32
E fixed	2.53	1.15	0.345	0.797	0.692	0.83	1.99	2.25	1.53	1.32
F fixed	0.463	1.14	1.52	1.03	1.26	1	0.539	0.887	0.727	0.858
G fixed	1.28	0.725	0.939	1.18	1.14	0.379	1.35	1.13	1.34	1.27
H fixed	0.614	1.08	1.38	1.07	1.1	0.774	0.798	0.997	0.89	1.04
I fixed	0.981	0.782	0.907	0.835	0.76	3.78	0.515	0.553	0.641	0.782
K fixed	0.175	0.848	0.625	0.986	1.05	0.34	0.693	0.63	0.905	1.04
L fixed	0.444	0.723	1.12	0.881	0.901	2.45	0.627	0.534	0.571	0.722
M fixed	0.788	0.788	1.24	0.968	0.88	1.4	0.602	0.598	0.76	0.723
N fixed	0.539	1.3	1.24	1.05	1.1	0.638	1.24	1.25	1.17	1.06
P fixed	0.254	0.933	0.908	1.63	1.23	0.531	1.74	1.16	1.24	1.25
Q fixed	0.98	1.16	0.937	0.94	1.08	0.514	1.19	1.19	1.19	1.16
R fixed	0.207	1.14	1.01	1.13	1.21	0.27	0.605	0.64	0.858	0.944
S fixed	1.22	1.41	1.07	0.968	0.896	0.575	1.06	0.995	0.895	0.898
T fixed	1.39	1.64	0.808	1.09	1	0.948	0.87	0.928	0.908	0.807
V fixed	1.57	1.01	0.9	0.834	0.783	1.45	0.624	0.571	0.728	0.771
W fixed	0.829	1.06	1.64	0.899	1.3	0.461	0.443	0.77	0.607	0.668
pThr fixed	3.94	2.21	0.407	0.62	0.444	1.85	1.4	1.35	1.14	0.994
pTyr fixed	1.25	1.67	0.517	0.595	0.619	1.72	1.2	1.23	0.945	0.998

TYK2, construct: aa871-end, human (from UniProt P29597)
relative phosphorylation
Details	at +1	at +2	at +3	at +4	at +5	at -1	at -2	at -3	at -4	at -5
A fixed	1.02	0.925	0.773	0.912	0.996	1.11	0.912	0.961	1.1	1.01
D fixed	0.279	0.572	0.536	0.798	0.795	1.27	0.902	0.975	0.881	0.949
E fixed	0.484	0.712	0.473	0.923	0.803	0.995	0.977	0.946	1.27	0.869
F fixed	1.45	1.04	1.17	1.05	1.02	1.24	0.932	1.02	1.18	1.04
G fixed	0.642	0.869	0.853	1.05	1.1	1.1	1.14	1.04	1.24	1.21
H fixed	1.3	0.828	1.07	1.15	1	1.22	1.09	1.04	0.906	0.96
I fixed	1.79	0.873	1.69	0.909	0.957	1.05	1.06	0.9	1.1	0.983
K fixed	0.544	1.29	0.806	1.24	1.1	0.573	0.956	0.959	0.86	0.995
L fixed	1.58	0.927	1.27	0.899	1.02	1.05	1.07	1.01	1.04	1.08
M fixed	1.59	1.02	1.33	1.17	0.983	0.976	0.858	0.983	0.967	0.959
N fixed	0.565	1.22	0.988	0.981	0.979	0.98	1.2	1.2	0.925	1.09
P fixed	0.381	1.04	0.756	0.756	1.22	1.18	0.892	1.17	1.1	1.09
Q fixed	0.973	1.07	0.967	1.15	0.908	0.854	1	0.981	1.02	1.03
R fixed	0.869	1.51	1.19	1.31	1.19	0.64	1.08	0.935	1.01	1.02
S fixed	0.761	1.06	0.951	0.957	1.03	0.98	0.986	0.995	0.743	0.91
T fixed	0.967	1.01	1.02	0.876	1.01	0.922	0.953	0.925	0.73	0.769
V fixed	1.42	0.823	1.16	0.857	0.882	0.949	0.983	0.963	0.786	0.875
W fixed	1.37	1.2	0.996	1.01	1	0.895	1.01	0.999	1.15	1.16
pThr fixed	0.332	0.465	0.257	0.549	0.579	0.969	0.712	0.903	0.863	0.929
pTyr fixed	1.02	0.822	0.517	0.919	0.694	1.51	0.98	1.1	1.22	1.07
